According to patent publication US20260026495A1, “STABLE PLASMIN COMPOSITIONS FOR ORGAN PRESERVATION AND RECONDITIONING” (Grifols Worldwide Operations Limited, priority 2022, published 2026):

Tests used:
[1] = Plasmin activity after storage, S-2403 chromogenic substrate; assay type: biochemical; conditions: plasmin 1 mg/mL stored at 0° C. over a 24-hour period; FIG. 4A
Protocol: To assess the compatibility of plasmin as an additive in Cold Storage Solutions, the activity of plasmin at a concentration of 1 mg/mL was assessed at multiple time points whilst stored at 0° C.
(white bars), 25° C. (black bars), or 37° C. (striped bars) for a 24 hour period. The commercial S-2403 plasmin specific chromogenic substrate was used to assess activity at each of the indicated times.
Significant plasmin activity is maintained when formulated with these excipients and diluted into organ preservation and reconditioning solutions. The commercial […] plasmin specific chromogenic substrate was used to assess activity at each of the indicated times.

[2] = system: plasmin; test: Plasmin proteolytic activity in presence of TXA, S-2403 chromogenic substrate; assay type: biochemical, human; conditions: plasmin 1 mg/mL; TXA 0.001 mM to 100 mM; FIG. 3
From the text: S-2403 is a commercially available, plasmin specific chromogenic substrate.

plasmin
plasmin activity (kinetics) during storage [1]: unaltered kinetics

NC[C@H]1CC[C@H](C(=O)O)CC1 [TXA, tranexamic acid]
proteolytic activity of plasmin (kinetics) [2]: unaltered kinetics
